PMC4964276 (The Biochemical journal, 2016)

Target: RIIα-D/D(1–44) used for ITC (human, UniProt P13861 1-44)
Assay: ITC

Sequence of RIIα-D/D(1–44) used for ITC (P13861 1-44): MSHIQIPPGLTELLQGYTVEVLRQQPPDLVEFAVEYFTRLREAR

Kd: 0.6 nM
dH: -22550 ± 171
stoichiometry N: 0.98 sites
Binder: NGGEPDDAELVRLSKRLVENAVLKAVQQYLEETQNKNKPGE (domain or fragment, human) [AKAP18β(43–83)]
